Test results taken from patent US20230183291A1 (Bicycle, published 2023).
Numbered stars: 1 amine (or outer) side, 2 acyl side, 3 side chain; on linkers, the order of the positions; unused ones are H or OH. Bridge positions count the residues as written; N and C are the ends. Square brackets hold non-standard residues; d marks the D form. Ends that are not written are not given here. TATA = O=C(CC[*:1])N1CN(C(=O)CC[*:2])CN(C(=O)CC[*:3])C1; Phe(4-Cl) = N[C@@H](Cc1ccc(Cl)cc1)C(=O)O; Hyp = O=C(O)[C@@H]1C[C@@H](O)CN1; hArg = N=C(N)NCCCC[C@H](N)C(=O)O; PYA = propargyl-acid

Columns and labels:
[1] = molecular target: T1, Biotinylated Human ACE2, His, Avitag protein (ACROBiosystems, AC2-H82E6) (human, UniProt Q9BYF1 18-740); experiment: SPR single cycle kinetics, ACE2 captured on CAP chip, peptide analyte; geometric mean; † high bulk contribution observed, treat with caution
T1 construct: also called biotinylated ACE2; ACE2 protein; not shown: His tag and Avitag
Experimental: (§1) Binding of bicyclic peptides of the invention to Biotinylated Human ACE2, His, Avitag™ protein (ACROBiosystems, AC2-H82E6) was assessed by a SCK analysis. Experiments were performed at 25° C. on a Biacore T200 (Cytiva) running Biacore T200 Control software V2.0.1 and Evaluation software V3.0 (Cytiva). HBS-EP+ (Cytiva) was used as running buffer as well as for ligand and analyte dilutions. Biotin CAPture reagent was loaded onto a Series S Sensor CAP Chip (Cytiva) followed by loading of the ACE2 protein at a flow rate of 2 μl/min. The surface was then allowed to stabilise.
(§2) SCK data was obtained using bicyclic peptides of the invention as analytes injected at a flow rate of 30 μl/min to minimise any potential mass transfer effects. […] The association phases were monitored for 100 seconds for each of the four injections of increasing concentrations of analyte and a single dissociation phase was measured for 400 seconds following the last injection of analyte. Regeneration of the sensor chip surface was conducted using the CAP Chip standard regeneration buffer (Cytiva).
(§3) The signal from the reference channel Fc1 (no ACE2 captured) was subtracted from that of Fc2, Fc3 and Fc4 to correct for bulk effect and differences in non-specific binding to a reference surface. The signal from each blank run (Fc2-ACE2 captured but no antigen) was subtracted to correct for differences in surface stability. […]

[2] = molecular target: T1, Biotinylated Human ACE2, His, Avitag …; experiment: SPR single cycle kinetics, biotinylated ACE2 captured on CAP chip, peptide as analyte
Experimental: as §1, §2, §3

[3] = molecular target: T1, Biotinylated Human ACE2, His, Avitag …; experiment: SPR multiple cycle kinetics, biotinylated ACE2 captured on CAP chip, peptide as analyte
Experimental: (§4) Binding of bicyclic peptides of the invention to Biotinylated Human ACE2, His, Avitag™ protein (ACROBiosystems, AC2-H82E6) was assessed by a MCK analysis. Experiments were performed at 25° C. on a Biacore T200 (Cytiva) running Biacore T200 Control software V2.0.1 and Evaluation software V3.0 (Cytiva). HBS-EP+(Cytiva) was used as running buffer as well as for ligand and analyte dilutions. Biotin CAPture reagent was loaded onto a Series S Sensor CAP Chip (Cytiva) followed by loading of biotinylated ACE2 at a flow rate of 2 μl/min. The surface was then allowed to stabilise.
MCK data was obtained using bicyclic peptides of the invention as analytes injected at a flow rate of 30 μl/min to minimise any potential mass transfer effects. […] For each concentration, the association phases were monitored for 250 seconds and the dissociation phase was measured for 450 seconds. […]
The signal from the reference channel Fc1 (no ACE2 captured) was subtracted from that of Fc2, Fc3 and Fc4 to correct for bulk effect and differences in non-specific binding to a reference surface. […] The double referenced sensorgrams were fitted with the Langmuir (1:1) binding model (Equation 1a above) where the closeness of fit of the data to the model is evaluated using the Chi square value which describes the deviation between the experimental and fitted (observed and expected) curves (Equation 1 b above).

[4] = molecular target: T1, Biotinylated Human ACE2, His, Avitag …; experiment: SPR single cycle kinetics, ACE2 captured on CAP chip, peptide analyte; geometric mean; * Rmax set to 10
Experimental: as §1, §2
(§5) The signal from the reference channel Fc1 (no ACE2 captured) was subtracted from that of Fc2, Fc3 and Fc4 to correct for bulk effect and differences in non-specific binding to a reference surface. The signal from each blank run (Fc2-ACE2 captured but no antigen) was subtracted to correct for differences in surface stability. The double referenced sensorgrams were fitted with the Langmuir (1:1) binding model (Equation 1a below) where the closeness of fit of the data to the model is evaluated using the Chi square value which describes the deviation between the experimental and fitted (observed and expected) curves (Equation 1b below).

[5] = molecular target: T1, Biotinylated Human ACE2, His, Avitag …; experiment: SPR multiple cycle kinetics, ACE2 captured on CAP chip, peptide analyte 6.25-100 nM; geometric mean
Experimental: as §4
MCK data was obtained using bicyclic peptides of the invention as analytes injected at a flow rate of 30 μl/min to minimise any potential mass transfer effects. A five point, two-fold dilution range from 6.25 nM to 100 nM of analyte was prepared in running buffer. For each concentration, the association phases were monitored for 250 seconds and the dissociation phase was measured for 450 seconds. Regeneration of the sensor chip surface was conducted between cycles using the CAP Chip standard regeneration buffer (Cytiva). Multiple repeats of a blank and of Bicycle were programmed into the kinetic run in order to check the stability of both the surface and analyte over the kinetic cycles.
as §5, with “above)” for “below)”, “1 b above).” for “1b below).”

T1 sequence (Q9BYF1 18-740 limits assumed): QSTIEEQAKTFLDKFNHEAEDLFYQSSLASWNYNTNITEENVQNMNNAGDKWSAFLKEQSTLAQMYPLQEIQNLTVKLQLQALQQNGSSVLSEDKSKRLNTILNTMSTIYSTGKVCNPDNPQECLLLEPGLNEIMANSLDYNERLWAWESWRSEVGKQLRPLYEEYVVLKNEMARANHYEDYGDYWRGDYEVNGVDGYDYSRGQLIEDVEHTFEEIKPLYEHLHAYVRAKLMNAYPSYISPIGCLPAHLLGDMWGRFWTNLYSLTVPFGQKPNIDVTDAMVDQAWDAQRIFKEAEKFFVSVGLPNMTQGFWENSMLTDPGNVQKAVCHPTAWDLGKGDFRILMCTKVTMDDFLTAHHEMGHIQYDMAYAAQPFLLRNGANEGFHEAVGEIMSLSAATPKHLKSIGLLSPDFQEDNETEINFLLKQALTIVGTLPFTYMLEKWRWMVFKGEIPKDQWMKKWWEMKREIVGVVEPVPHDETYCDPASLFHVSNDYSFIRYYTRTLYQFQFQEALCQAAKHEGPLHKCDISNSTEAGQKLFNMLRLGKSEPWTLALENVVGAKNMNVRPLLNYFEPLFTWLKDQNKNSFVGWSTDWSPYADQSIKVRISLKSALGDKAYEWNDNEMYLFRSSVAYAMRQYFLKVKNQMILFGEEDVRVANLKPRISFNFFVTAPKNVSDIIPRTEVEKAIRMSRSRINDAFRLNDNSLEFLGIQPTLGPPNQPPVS

Row | Binder | Kd [1] | binding result [2] | further results
1 | ACNAVLCSWARANSFCAK(PYA) (linker 2-7-16 via TATA, bicyclic peptide, TATA scaffold) [BCY17344] | 0.0032 µM | – | –
2 | Ac-CNDVLCSWA[hArg]ANSFC (linker 1-6-15 via TATA, bicyclic peptide, TATA scaffold) [BCY18659] | – | no binding | –
3 | Ac-CNEVLCSWA[hArg]ANSFC (linker 1-6-15 via TATA, bicyclic peptide, TATA scaffold) [BCY18783] | – | no binding | –
4 | Ac-CNAVLCSWA[hArg][Hyp]NSFC (linker 1-6-15 via TATA, bicyclic peptide, TATA scaffold) [BCY19024] | – | – | binding result [3]: no binding
5 | ACNAVLCSWARANS[Phe(4-Cl)]CA (linker 2-7-16 via TATA, bicyclic peptide, TATA scaffold) [BCY17340] | 0.0169 µM | – | –
6 | Ac-CNTVLCGWA[hArg]ANSLCK(PYA) (linker 1-6-15 via TATA, bicyclic peptide, TATA scaffold) [BCY18551] | – | – | Kd [4]: 0.0154 µM; Kd [5]: 0.0195 µM
